We go through 47 sequences from the NTF2 design screens of Basanta et al. (2020).

A short description of this series: protease stability score; higher = more stable; yeast display proteolysis, trypsin and chymotrypsin.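 Further: log10 excess protease needed over predicted unfolded state with 0 meaning unfolded.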

Consider “DEEQLKTFQQAMRDEEHGNEQRVRDLFDPNARVVYGDKVVHGREEMVKKLKRRKDEMRVELRVREYKVEEDHMSATLEVINDHNGKPDTDKQTVEARMNGDQFEQVNIQKDS”, for which the protease stability score is 0.17. The same measure for “DEEQLKTIREWMNQVQRGNFDQWAKNLDKNAHVDYGDRSVTGREEWQRLMRRQKREIRMQVKVDHVSAQGENIEVQARVRFTHNGQPDETNNKITAKVHNGRVKHMRVEEDK”: 0.248. With “DEEQLQREANEYNKLRRHGDPDRIVELADPNARAHVGDKRVHGREDMKRMVEEERKHADHITFTDFRVDGDKLEILFVITHNGQSDTRIMTIQWDNGKIKRLEVKNN”, the protease stability score turned out to be 0.381. “DEEQMDRFKDLKHALDEGDEDRLKNLVDPNARMRYGDKEVTGMEDIARQQVQRVNEINVEVDRMHVQVHNGTLEIHATVTENHNGKPKKYTFRATARAENGRFVHRVQETRG” came in with a protease stability score of -0.101. The same measure for “DEEQMERVMQRVIKALQQGDQETVRKLGKPNGEVQAGDYRNKGPEAFVMAVDVAQKVGNKFEYKETRTKGGKMQTVVKVTVGGKTVEYEVEVVVEGGKAKEWYVRLDDDFVEQAKKS”: 0.514.

With “DEEQMKKVVEKLVQALRNGNTDEIVRMVKEDVTFKLSDETYRGQEDVRKMAKQLQDKGNKMELKHKEAKGDEAEVVTVWHVGDKTAKLKVRYVVKDDKVEKVQADWSEEVVKAYKHG”, the protease stability score came to 0.122. Under “DEEQMKKVVEQLLQALQNKDPEKIVQLVDEDVEFTLVDEKYKGHEDVRKLVKKLVDAGAEFRIDRHEATGDQAHVDTQWKVGDYTLKVTVTYVVRDDKVEKVEIRWSEEAKKAMKEG” stands 1.11. “DEEQNEHFSKVLQHGDFDRLAELMDPNAKAEVGDKTVHGREEFQRWIEHFKRQVDHIQYDRIDYHGNEIHASVRVHVNGNTIEFNVSLEFKNGRVTSFMMKARTKDDEDELRRLQS”: the protease stability score was 1.47.

As for “DEEQNKLADTAMEAWNHGDPDQMVKMLDPNARVRYGDKQFHGRTDVKKWMKRLNDQARMSVTHYKIRVKGEKALLTARLEFEINGQPFRRHVKVVFNNHNGKAKQVDWQFDQDKQRKIES”, the protease stability score was 0.152.

Sequence “DEEQNRRIDDMWRAEENGDENRMKELADPNVELQIGDKQVHGMDEYVKEAKKRRDKSEISIEIKQVEVHNGSVHVDFVFTENENGTPDSKRVHVNARFDNGKLKSMSQNDTE” registered a protease stability score of 1.1. Under “DEEQNTRFHRMLEDLKTGNEERVQDYMDPNVKVRIGNNVLDGREHAATHMVQLNREIRFHIHNFTVQVHNGRLDIKANADADVNGKPIKFSYERYAILHNGTIKRMREQFDEHLKRQLDR” stands -0.013; under “DEEQQKEQKKRLREMIETNNEDELQRQADKDVKVVVGDQTYHGREEARKWVHELKRRVDHVRVDRVEAHGNKISARYRASVNGETQRYNMVIHITNGRIQHMRVTEG”, 0.894.

In turn, “DEEQRKRMAEKFRNAIQRNDDDKIRELAPPDVSARYGDKEVHGREELLKYIDRLHKEADRIDVHDLHVKGETIILTLVVNINGHNHRYNFVAHIHDGRMHRMKVESR” showed a protease stability score of 1.21. Under “DEEQRLKQVFDTLVKAFEDNDEDQIRDMMDPNVTVRVGDKEVHGRDEVARRVVDERRKVDHVHNDIKDYRVRGNHLVMKIDQVFNHNGETRKQTATMVVKVHDGRAVVETLHYD” stands 1.09. “DEEQRRMVQELFKALQHGDPDKVEELVDPNAQLHYGDKTVTGREEMHRWIEHLLDKIRIHFQRVSVRSRNGRAIAHATVEVVFNGKPDTVTFDLEANVHNGKFRRIVLRFPEEAQKKLKR” registered a protease stability score of 1.48.

For the sequence “DEEQTLRERFNTLKRAQDHNDEEDLRRMMDENVKVRIGDEDVHGRETANEQFARMLRRVDHVRLRLKTMHVHGEKYQFRFELQLTVNGRHEHRDVRIRFDNVNGRTNIVEMEVG”, the protease stability score came to 0.35. On to “DEEQVEHAMNRLVQALRSGDEKKLLDLAPEDVKMRIGDREFHGREDFEKAVKEFVDRVDHFQFEDVSIRGDDIFIHVWNQVNGRRHKQVITVKAHNGRMKHMVLDTP”, for which the protease stability score is 0.983. Sequence “DEEQVEHMRRIVQEGDFDELKDNADPNARVQVGDKRYHGREQVQHVMKNFRDKADHVEISSIKQDEDHVSAEMHVEVNGERFVIRIHFVVHNGRLEQINIQVTSERDQKKLKKMLD” yielded a protease stability score of 0.185.

On to “DEEQVKKVLETLVKALQKGNIEEILKMLKEDVEFVLIDEKYQGREDAKKIVKQLVDQGMEVHFDRHEVTGNQAHVQTRWHYGNKEAHAEVTYYVKGDTVDKVDIQWSETAKKAVKEG”, for which the protease stability score worked out at 1.13. Sequence “DEEQVKKVVEELLKAVHNGNVDQIKKIVKENVEFTLGDKTMKGQEDVEKDVKQLHDKGADFKVDEVEVTGDHATANTKWQIGDQKAHVQVHYQVRDDTVERVEVRWSEDAKKAIKQG” came in with a protease stability score of -0.141. Consider “DEEQVKKVVKVLMEYFKRGDVDQIVRMIDEDVEFKLLDEKKKGQEQVKTVIKKLHDQGAEVHVDHAEVEGDKATVDTRWHIGDHTMEATVEYYVEGDRVKKVKVQWSEEAKKALHAG”, for which the protease stability score amounted to 1.06. In turn, “DEEQVNKVRTLVESNDEKTMQELADPNAKAEIGNKRFHGMHRAAHVLTKLRKQADTVRYREIDVHNGQVHAHFSMHFNGKRIDARVVLKVRNGRLRHMKIEATDPHLEEELERQVQ” came in with a protease stability score of 0.268. Take “DEEQVQKVVDKLIKAVQNGNRKQIVDLVKENVEFTLADETYKGKDDVQTVIKRLHEVGAEVHVDRYDVRGDTAHADTRWHMDDQEMHVTVEYVVRGDRVEQVHVQWSEEAKKVHKKG”: the protease stability score was -0.044. “DEEQVREAMEIVKHGDPDKFRKQADKDVRLTIGDTEYHGREDVMTVLVSFLRTVDHLNIKSVDVRGDKAVINADFNYNGKEININIHLEFHNGRLKSVQIQATNREDQKDLKRIIK” gave a protease stability score of 1.28. “DEEQVRKMLETILKMMVNGNLEEVKKVLKPNVDYQLGDEKLQGQQVAERADKYIKKVGVRAEIKRAKVEGDTAELDYEFTADGRTVRVTVQAHAKDGRLDQWRVEVSDTAKKIRQKG” gave a protease stability score of 0.736. Under “DEEQVRKVVEQLLKMLQNKNTEEIVKLVKEDATFTLGDETRRGQEDVRKLVQRLKEQGAEFHTHEVRVKGGEAKAKTQWHVANREVHAEVKYVVRGDKVEKVEVRWSEEAKKALKEG” stands -0.071; under “DEEQVTKAKNLLENWKTNNPEEVKKLADPNARAQIGDQVIHGMDKYVTFLHKQRSKMRFELHIRSMTADNGRVKMTFDHVVDHNGRPDKNDARMSVQFENGKIKELVIQKDK”, -0.295. With “DEERAAHNALRALEAMLTGDEKKADELADKDVRVNVGDRVYDGDEKMQKFVRELRKRYDHFHFRTYSHDGDKVKANVILNVNGRNVEIIFYLHAHNGKLKSVRVEVRNPELLKNLTS”, the protease stability score was found to be 1.23. “DEERADELVELLTNNNFQSLADNADPNASIEYGDKTIRGRDEANKFLQNIERRADHVEIKSLKTKGNKIDIDLVVHVNGQKLRFKVEIKLRNGKVTHIRIQATSERDQRKFLEVVG”: the protease stability score is 1.06.

Sequence “DEERAKQLMEKAFKMIRNGNEEVVRKMLKPNGRYEYIDKKFEGEEAAKFVVQLVQKVGAEDKVKRKEVKGDTAKMDFDYHKGDKTVRTTAEVIYKGDKMEQARVELTDEVKKIVHQG” returned a protease stability score of 0.046. As for “DEERAKQVADKVFKYAINGDEEKMQKQLDPNVEYKYADTEYEGEDAARAIVRLVKQVGMEVKTQRQEVKGNTMQADFRYHNGDKEVQTTARVEYEGDKVKKVEVKVTDEVKKEAHKG”, the protease stability score was -0.068. Under “DEERAMKDAVDRMEKNVKNGNFDKMMNLADKDAKVVVGDDTYRGRDNNVKKNKEDKEEFDHAEVRFKEVEVENGRISIHADITLNVNGQDVTRRFNFELRNHNGTALIVRLTLK” stands 0.188. Under “DEERAQHLVDQIFRAFKRGDPEQFKKMFDPNARMHVGDQRYHGREDIIKFLQEIREQADTITLRKVTVHNGQADIIVDVQVDGRRVRIQILINYHNGKVKSLKIHYTDEELQKEIES” stands 1.56; under “DEERDERVATKVAEAMATGDPEKVMEQAPPNAEMRIGDKHFTGEEHIKQALLEWKRDADHIQVDHVSVQNGRAHMDMQFTINGRKRRYTLRVEVHNGKAKTVSVREP”, 0.315. Under “DEERDLDIAVEAAKNLLTGNEERFSKMAPPDVRIEYGDKTVHGREQANTAVKEFRDRVDHIEIKRIEKDGNKAHIEFIANVNGHRFTVTMVVDVSNGRVNQVDIRARNKEDQEKMKG” stands 0.06. “DEEREAKEWMELFEDQFRQGNEHEVNKLMDKDARIHVGEKHVSGRNQAKKELKEHMKRADHIHIQLHEVDSRPGRMILDFTINQQVNGRRSSDKVRARFSKRNGRWYQESETQG” displayed a protease stability score of 0.104. The same measure for “DEEREEQARKLLRAEEQGDPDRAKQMMDPNARVQVGNKRVHGRSEIATQLEKRKRRARYEIKHVTIRARGNRVDVKINVQVVVNGRPHHFTYIMHLTFQGDKAKNATVRIDEDTLRQVDS”: 0.171; for “DEEREKEFATRIATALRTNDPKKMVKNFDENAKFDVGDNRIKGREELKEWVDELHKEFDHIEIHDVQAHNGRAKINLKLEHNGRDTVLDATVVVENGRAKSAKQDQS”: -0.448; for “DEERELEELMQRLISLMKNGNPKEVAKLLDPNVRVQYGDKRLHGREQAIRRIESLRRHVDHVTMSIESLQVEGDKVSARIEAVYDVNGTQDQRTIELELRQVNGKLRFKHITFK”: 0.017. “DEEREVKKRIKHIIRVLENGDEDRAEELADPNTTARVGDKRVHGMNNYMRELARKARRADHVEVTIKHMDLNGEKFDIRLHIVIHVDGRREKFDLRFVITRQGDKHVAVDVQVS” showed a protease stability score of 1.47. The same measure for “DEERKAEEMAKSIIKVWQSGDHHQQQRNADEDVRFEIGDKRINGDHQLEDWVKKIKEQYDHIEVRIKSVTRQGDKLVVIAQVVYNENGHRRQVTVRFVAVDHNGTIVLKRAIYR”: 0.406. “DEERKEQLLEIYKAIDTGNPEKVKELADPNAHVQYGDKSVHGMDDAVRQLEKRRKEIRIHWDVKSVHVEGNKVDVVAENEEEHNGHPRSHTVRVNAEFQGDKMKNAHYQSDK” registered a protease stability score of -0.202. Under “DEERKKQAEHFMRVYQQGNEEELNKLMDPNVKANVGDKEWQGREKMAKDTREKLEHSKLQLHSVSVDAQGNNIRIDVSFVVNHNGEPRRNHQTIIIHIDNGRITRLEVKDTS” stands 0.004. Under “DEERKKRVEEALRQEQQGNEEDYSELMDENVKITIGDKTIRGSKEAVRHFKEKMTQMRIELRDYRIQVHGNKVSVDLKYVNDHDGQPRHQKATATMDMTNGRVQSREVDNKP” stands 0.186; under “DEERLAKEVNDQYQHIMDTGDPDQARKLFDENARVDIGDKQYHGREEAVEAFQQRMNRVDHIDIKIDEVKVRNGEIDVKFEINQNSNGKNVHRNIRFTMRVNGDKYAIVDMHVQ”, 0.367. Under “DEERLQKIIEKAFKVIQNGNKEEAQKLGKPNVEYHYLDKTLHGPKAVEHAVEHVKKVGAEVKQQEIEVHGGTAKAVFQYHVGDKTVQTTAEVTYEGDKMKKARVKISEEVKKMMHRG” stands -0.076; under “DEERMHQLEKLFRTNNFEEFAKQADKDVTAKVGNETYTGREDMEKFARRLREQVDSIHYDRVEVKGDKFKADAQFDFNGKRVRFTVEVEFHNGKLQHMRMQATTHELEETLAKLLS”, 1.41.
